We go through one molecule from patent US8173600 (CHIESI FARMACEUTICI S P A, dated 2012).

The target of this assay is T1, human recombinant caspase-2 (human, UniProt P42575 170-452, limits assumed).
T1 sequence (looked up): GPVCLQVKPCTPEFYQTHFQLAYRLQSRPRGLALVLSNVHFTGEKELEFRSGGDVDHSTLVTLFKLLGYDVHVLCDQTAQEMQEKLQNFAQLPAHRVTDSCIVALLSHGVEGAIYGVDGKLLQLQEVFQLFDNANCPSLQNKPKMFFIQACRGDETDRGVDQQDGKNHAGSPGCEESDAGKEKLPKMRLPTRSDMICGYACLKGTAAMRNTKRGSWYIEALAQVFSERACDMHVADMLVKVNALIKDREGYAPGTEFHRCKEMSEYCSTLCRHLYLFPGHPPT
The experiment in a line: cell-based or functional assay.

Numbered stars: 1 amine (or outer) side, 2 acyl side, 3 side chain; on linkers, the order of the positions; unused ones are H or OH. Square brackets hold non-standard residues; d marks the D form. * marks the point of attachment. 2,6‑difluorophenyl ester = C-terminal 2,6-difluorophenyl ester (dfp), Fc1cccc(F)c1O*; Asp(OMe) = aspartyl methyl ester, COC(=O)C[C@H](N[*:1])C(=O)[*:2]; Quinaldoyl = O=C(c1ccc2ccccc2n1)*

B1: 2-Quinolinylcarbonyl-L-Valinyl-L-Aspartyl (methyl ester)-L-Valinyl-L-Alanyl-L-Aspartyl (methyl ester) 2,6-difluorophenyl ester (peptide)
peptide: Quinaldoyl-V[Asp(OMe)]VA[Asp(OMe)]-{2,6‑difluorophenyl ester}
SMILES: COC(=O)C[C@H](NC(=O)[C@@H](NC(=O)c1ccc2ccccc2n1)C(C)C)C(=O)N[C@H](C(=O)N[C@@H](C)C(=O)N[C@@H](CC(=O)OC)C(=O)Oc1c(F)cccc1F)C(C)C
In the case of B1, the “IC50 (in vitro inhibition of human recombinant caspase-2)” value turned out to be 80 nM.
